Publication PMC9800341, “THOC5 complexes with DDX5, DDX17, and CDK12 to regulate R loop structures and transcription elongation rate”

Columns and labels:
THOC6-FLAG [1] = molecular target: T1, THOC6-FLAG (UniProt Q86W42 1-341); test: streptavidin pull-down; 4 C overnight or 37 C 2 h; EMSA: 20 mM Tris pH 7.5, 2 mM DTT, 12 mM MgCl2, 100 mM NaCl, 10% glycerol, 30 min RT; pull-downs: 4 C overnight or 37 C 2 h (Fig S5A: 4 h), buffer not given in; details: protein: recombinant; tags: C-terminal FLAG (DYK); label: 5' biotin on DNA or RNA strand; blunt
T1 sequence: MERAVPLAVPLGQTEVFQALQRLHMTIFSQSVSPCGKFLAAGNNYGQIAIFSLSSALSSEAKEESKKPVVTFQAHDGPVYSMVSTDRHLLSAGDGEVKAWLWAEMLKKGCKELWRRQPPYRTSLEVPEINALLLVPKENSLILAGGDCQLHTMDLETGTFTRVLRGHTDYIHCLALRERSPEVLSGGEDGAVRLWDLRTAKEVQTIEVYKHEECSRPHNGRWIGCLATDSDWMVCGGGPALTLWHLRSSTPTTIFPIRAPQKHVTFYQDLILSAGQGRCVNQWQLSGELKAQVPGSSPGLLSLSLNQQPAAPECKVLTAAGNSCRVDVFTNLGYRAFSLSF

GST-THOC6 WT = molecular target: T2, GST-THOC6 WT (UniProt Q86W42 1-341); test: streptavidin pull-down; EMSA: 20 mM Tris pH 7.5, 2 mM DTT, 12 mM MgCl2, 100 mM NaCl, 10% glycerol, 30 min RT; pull-downs: 4 C overnight or 37 C 2 h (Fig S5A: 4 h), buffer not given in; details: protein: recombinant; tags: GST (pGEX-4T1), FLAG; label: 5' biotin on DNA or RNA strand; blunt
T2 sequence: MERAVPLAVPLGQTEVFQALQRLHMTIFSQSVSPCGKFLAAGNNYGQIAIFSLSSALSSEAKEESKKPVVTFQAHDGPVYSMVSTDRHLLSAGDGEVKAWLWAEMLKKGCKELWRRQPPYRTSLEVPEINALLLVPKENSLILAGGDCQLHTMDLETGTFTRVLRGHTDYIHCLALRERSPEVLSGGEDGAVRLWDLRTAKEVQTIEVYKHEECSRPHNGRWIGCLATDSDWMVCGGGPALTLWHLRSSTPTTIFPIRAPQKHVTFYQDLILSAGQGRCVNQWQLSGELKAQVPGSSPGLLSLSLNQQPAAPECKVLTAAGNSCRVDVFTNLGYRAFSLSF

THOC6-FLAG [2] = molecular target: T1, THOC6-FLAG; test: streptavidin pull-down; 4 C overnight or 37 C; EMSA: 20 mM Tris pH 7.5, 2 mM DTT, 12 mM MgCl2, 100 mM NaCl, 10% glycerol, 30 min RT; pull-downs: 4 C overnight or 37 C 2 h (Fig S5A: 4 h), buffer not given in; details: protein: recombinant; tags: C-terminal FLAG (DYK); label: 5' biotin on DNA or RNA strand; blunt

B1: C4D (C4-ssDNA + C4-ssRNA) (DNA:RNA)
DNA: CCCGGGAGGCGGAGGTTGCAGTGAACCAAGATCGCGCCATTGCACTCCAGCCTGGG
RNA: CCCAGGCUGGAGUGCAAUGGCGCGAUCUUGGUUCACUGCAACCUCCGCCUCCCGGG
B1: binds (THOC6-FLAG [1]); binds (GST-THOC6 WT).

B2: OSD (OS4D; OS-ssDNA + OS-ssRNA) (DNA:RNA)
DNA: CGCCCTCCCGCCCCCTCGGGGCCCCGCCCCTGGGCCTCTCAGGCCCCTCCCCTGCGCTCC
RNA: GGAGCGCAGGGGAGGGGCCUGAGAGGCCCAGGGGCGGGGCCCCGAGGGGGCGGGAGGGCG
B2: binds (THOC6-FLAG [2]).
